Data reported in patent US20220340636A1.

Experiments:
[1] = target: human insulin receptor (hIR) (human) (UniProt P06213); test: cell-based or functional assay
[2] = target: human insulin receptor (hIR) (human) (UniProt P06213); test: binding to hIR, assay not described at this place; reference human insulin
[3] = target: human IR-B overexpressed on NIH 3T3 mouse fibroblast cells (human) (UniProt P06213); test: cell-based or functional assay
[4] = target: solubilised immuno-captured human IR (isoform B) (human) (UniProt P06213)
[5] = target: solubilised immuno-captured human IR (isoform B) (human) (UniProt P06213); test: competition binding on human IR-B (FIG. 2); reference PTM-free sCon-Ins G1

## B10E, B20 biphenyl DOI analogue (ligand)
[1]
  fold higher potency than N10E, B20Y DOI: 3 fold
  fold increase of the potency of DOI: 100 fold
  percent of the potency of human insulin: 10%

## B20 Tyr DOI analogue (ligand)
[1]
  fold increased potency in hIR activation (against DOI): 5 fold

## Con-Ins G1 (ligand)
[2]
  fold less affinity than human insulin: 30 fold

## DOI analogue with B10 Glu and B20 Tyr (ligand)
[1]
  fold increase in potency compared to B20 Tyr alone: 5 fold

## hIns[TyrB15, TyrB20, DOI] (ligand)
[3]
  fold more active than hIns[DOI], Akt phosphorylation assay: 5 fold
[1]
  fold increased potency in hIR activation (against DOI): 5 fold

## sCon-Ins G1 (ligand)
[4]
  fold less active than hIns: 30 fold
  log [IC50 (nM)]: 1.24 log nM
[5]
  fold more active than the PTM-free analogue: 4 fold
